Test results taken from patent publication US20220119534A1 (DRAGONFLY THERAPEUTICS, published 2022).

What was measured:
[1] = target: T1, human CLEC12A expressed on cells (human, UniProt Q5QGZ9 1-265); test: flow cytometry, hCLEC12A+ Ba/F3
T1 construct: Transduced isogenic cells or endogenous expression on AML cells; also called RMA-hCLEC12A; Ba/F3-hCLEC12A
T1 sequence: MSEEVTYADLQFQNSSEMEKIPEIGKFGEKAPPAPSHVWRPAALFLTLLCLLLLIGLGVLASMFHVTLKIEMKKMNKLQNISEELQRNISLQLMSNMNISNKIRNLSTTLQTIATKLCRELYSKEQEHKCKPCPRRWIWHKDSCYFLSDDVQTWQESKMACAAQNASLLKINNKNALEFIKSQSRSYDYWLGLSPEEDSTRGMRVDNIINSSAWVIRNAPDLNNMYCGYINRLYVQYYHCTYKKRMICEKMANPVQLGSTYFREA

[2] = target: T1, human CLEC12A expressed on cells; test: flow cytometry, HL60
[3] = target: T2, recombinant human CLEC12A-His (human, UniProt Q5QGZ9 65-265); test: SPR screening, semi-purified
T2 construct: also called hCLEC12A-His; hCLEC12A
T2 sequence: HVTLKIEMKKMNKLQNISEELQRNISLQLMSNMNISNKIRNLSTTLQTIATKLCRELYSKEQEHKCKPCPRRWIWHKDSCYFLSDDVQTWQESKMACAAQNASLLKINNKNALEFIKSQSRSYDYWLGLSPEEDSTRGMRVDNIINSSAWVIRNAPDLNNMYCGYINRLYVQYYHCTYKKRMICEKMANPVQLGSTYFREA

| Binder | EC50 [1] | Max binding MFI [1] | EC50 [2] | Max binding MFI [2] | Kd [3] | koff [3] | kon [3] |
| --- | --- | --- | --- | --- | --- | --- | --- |
| AB0191 (other, As AB0185) EVQLVESGGGVVQPGGSLRLSCAASGFTFNSFGMHWVRQAPGKCLEWVAFISSGSTSIYYANTVKGRFTISRDNSKNTLYLQMNSLRAEDTAVYYCARDGYPTGGAMDYWGQGTSVTVSSGGGGSGGGGSGGGGSGGGGSDIQMTQSPSSLSASVGDRVTITCKASQDIYNYLSWFQQKPGKAPKPLIYRANILVSGVPSRFSGSGSGQDYTFTISSLQPEDIATYYCLQFDAFPFTFGCGTKLEIKGSDKTHTCPPCPAPELLGGPSVFLFPPKPKDTLMISRTPEVTCVVVDVSHEDPEVKFNWYVDGVEVHNAKTKPREEQYNSTYRVVSVLTVLHQDWLNGKEYKCKVSNKALPAPIEKTISKAKGQPREPRVYTLPPCRDELTKNQVSLTCLVKGFYPSDIAVEWESNGQPENNYKTTPPVLVSDGSFTLYSKLTVDKSRWQQGNVFSCSVMHEALHNHYTQKSLSLSPG heavy: EVQLVESGGGLVKPGGSLRLSCAASGFTFSSYSMNWVRQAPGKGLEWVSSISSSSSYIYYADSVKGRFTISRDNAKNSLYLQMNSLRAEDTAVYYCARGAPIGAAAGWFDPWGQGTLVTVSSASTKGPSVFPLAPSSKSTSGGTAALGCLVKDYFPEPVTVSWNSGALTSGVHTFPAVLQSSGLYSLSSVVTVPSSSLGTQTYICNVNHKPSNTKVDKKVEPKSCDKTHTCPPCPAPELLGGPSVFLFPPKPKDTLMISRTPEVTCVVVDVSHEDPEVKFNWYVDGVEVHNAKTKPREEQYNSTYRVVSVLTVLHQDWLNGKEYKCKVSNKALPAPIEKTISKAKGQPREPQVCTLPPSRDELTENQVSLTCLVKGFYPSDIAVEWESNGQPENNYKTTPPVLDSDGSFFLYSWLTVDKSRWQQGNVFSCSVMHEALHNHYTQKSLSLSPG light: DIQMTQSPSSVSASVGDRVTITCRASQGISSWLAWYQQKPGKAPKLLIYAASSLQSGVPSRFSGSGSGTDFTLTISSLQPEDFATYYCQQGVSFPRTFGGGTKVEIKRTVAAPSVFIFPPSDEQLKSGTASVVCLLNNFYPREAKVQWKVDNALQSGNSQESVTEQDSKDSTYSLSSTLTLSKADYEKHKVYACEVTHQGLSSPVTKSFNRGEC | 600 pM | 7940 MFI | 600 pM | 420 MFI | 1730 pM | 0.00126 s⁻¹ | 728000 M⁻¹ s⁻¹ |
| AB0185 (other, Humanized 9F11.B7 F3' TriNKET; scFv-Fc chain built from the general F3' description) DIQMTQSPSSLSASVGDRVTITCKASQDIYNYLSWFQQKPGKAPKPLIYRANILVSGVPSRFSGSGSGQDYTFTISSLQPEDIATYYCLQFDAFPFTFGCGTKLEIKGGGGSGGGGSGGGGSGGGGSEVQLVESGGGVVQPGGSLRLSCAASGFTFNSFGMHWVRQAPGKCLEWVAFISSGSTSIYYANTVKGRFTISRDNSKNTLYLQMNSLRAEDTAVYYCARDGYPTGGAMDYWGQGTSVTVSSGSDKTHTCPPCPAPELLGGPSVFLFPPKPKDTLMISRTPEVTCVVVDVSHEDPEVKFNWYVDGVEVHNAKTKPREEQYNSTYRVVSVLTVLHQDWLNGKEYKCKVSNKALPAPIEKTISKAKGQPREPRVYTLPPCRDELTKNQVSLTCLVKGFYPSDIAVEWESNGQPENNYKTTPPVLVSDGSFTLYSKLTVDKSRWQQGNVFSCSVMHEALHNHYTQKSLSLSPG heavy: EVQLVESGGGLVKPGGSLRLSCAASGFTFSSYSMNWVRQAPGKGLEWVSSISSSSSYIYYADSVKGRFTISRDNAKNSLYLQMNSLRAEDTAVYYCARGAPIGAAAGWFDPWGQGTLVTVSSASTKGPSVFPLAPSSKSTSGGTAALGCLVKDYFPEPVTVSWNSGALTSGVHTFPAVLQSSGLYSLSSVVTVPSSSLGTQTYICNVNHKPSNTKVDKKVEPKSCDKTHTCPPCPAPELLGGPSVFLFPPKPKDTLMISRTPEVTCVVVDVSHEDPEVKFNWYVDGVEVHNAKTKPREEQYNSTYRVVSVLTVLHQDWLNGKEYKCKVSNKALPAPIEKTISKAKGQPREPQVCTLPPSRDELTENQVSLTCLVKGFYPSDIAVEWESNGQPENNYKTTPPVLDSDGSFFLYSWLTVDKSRWQQGNVFSCSVMHEALHNHYTQKSLSLSPG light: DIQMTQSPSSVSASVGDRVTITCRASQGISSWLAWYQQKPGKAPKLLIYAASSLQSGVPSRFSGSGSGTDFTLTISSLQPEDFATYYCQQGVSFPRTFGGGTKVEIKRTVAAPSVFIFPPSDEQLKSGTASVVCLLNNFYPREAKVQWKVDNALQSGNSQESVTEQDSKDSTYSLSSTLTLSKADYEKHKVYACEVTHQGLSSPVTKSFNRGEC | 700 pM | 8020 MFI | 400 pM | 372 MFI | 1400 pM | 0.00101 s⁻¹ | 726000 M⁻¹ s⁻¹ |
| AB0186 (other, As AB0185) DIQMTQSPSSLSASVGDRVTITCKASQDIYNYLSWFQQKPGKAPKPLIYRANILVSGVPSRFSGSGSGQDYTFTISSLQPEDIATYYCLQFDAFPFTFGCGTKLEIKGGGGSGGGGSGGGGSGGGGSEVQLVESGGGVVQPGGSLRLSCAASGFTFNAFGMHWVRQAPGKCLEWVAFISSGSTSIYYANTVKGRFTISRDNSKNTLYLQMNSLRAEDTAVYYCARDGYPTGGAMDYWGQGTSVTVSSGSDKTHTCPPCPAPELLGGPSVFLFPPKPKDTLMISRTPEVTCVVVDVSHEDPEVKFNWYVDGVEVHNAKTKPREEQYNSTYRVVSVLTVLHQDWLNGKEYKCKVSNKALPAPIEKTISKAKGQPREPRVYTLPPCRDELTKNQVSLTCLVKGFYPSDIAVEWESNGQPENNYKTTPPVLVSDGSFTLYSKLTVDKSRWQQGNVFSCSVMHEALHNHYTQKSLSLSPG heavy: EVQLVESGGGLVKPGGSLRLSCAASGFTFSSYSMNWVRQAPGKGLEWVSSISSSSSYIYYADSVKGRFTISRDNAKNSLYLQMNSLRAEDTAVYYCARGAPIGAAAGWFDPWGQGTLVTVSSASTKGPSVFPLAPSSKSTSGGTAALGCLVKDYFPEPVTVSWNSGALTSGVHTFPAVLQSSGLYSLSSVVTVPSSSLGTQTYICNVNHKPSNTKVDKKVEPKSCDKTHTCPPCPAPELLGGPSVFLFPPKPKDTLMISRTPEVTCVVVDVSHEDPEVKFNWYVDGVEVHNAKTKPREEQYNSTYRVVSVLTVLHQDWLNGKEYKCKVSNKALPAPIEKTISKAKGQPREPQVCTLPPSRDELTENQVSLTCLVKGFYPSDIAVEWESNGQPENNYKTTPPVLDSDGSFFLYSWLTVDKSRWQQGNVFSCSVMHEALHNHYTQKSLSLSPG light: DIQMTQSPSSVSASVGDRVTITCRASQGISSWLAWYQQKPGKAPKLLIYAASSLQSGVPSRFSGSGSGTDFTLTISSLQPEDFATYYCQQGVSFPRTFGGGTKVEIKRTVAAPSVFIFPPSDEQLKSGTASVVCLLNNFYPREAKVQWKVDNALQSGNSQESVTEQDSKDSTYSLSSTLTLSKADYEKHKVYACEVTHQGLSSPVTKSFNRGEC | 700 pM | 8160 MFI | 500 pM | 412 MFI | 1040 pM | 0.00117 s⁻¹ | 1.12e+06 M⁻¹ s⁻¹ |
| AB0195 (other, As AB0185) EVQLVESGGGVVQPGGSLRLSCAASGFTFNAFGMHWVRQAPGKCLEWVAFISSGSTSIYYANTVKGRFTISRDNSKNTLYLQMNSLRAEDTAVYYCARDGYPTGGAMDYWGQGTSVTVSSGGGGSGGGGSGGGGSGGGGSDIKMTQSPSSLSASVGDRVTITCKASQDIYNYLSWFQQKPGKAPKPLIYRANILVSGVPSRFSGSGSGQDYTLTISSLQPEDIATYYCLQFDAFPFTFGCGTKLEIKGSDKTHTCPPCPAPELLGGPSVFLFPPKPKDTLMISRTPEVTCVVVDVSHEDPEVKFNWYVDGVEVHNAKTKPREEQYNSTYRVVSVLTVLHQDWLNGKEYKCKVSNKALPAPIEKTISKAKGQPREPRVYTLPPCRDELTKNQVSLTCLVKGFYPSDIAVEWESNGQPENNYKTTPPVLVSDGSFTLYSKLTVDKSRWQQGNVFSCSVMHEALHNHYTQKSLSLSPG heavy: EVQLVESGGGLVKPGGSLRLSCAASGFTFSSYSMNWVRQAPGKGLEWVSSISSSSSYIYYADSVKGRFTISRDNAKNSLYLQMNSLRAEDTAVYYCARGAPIGAAAGWFDPWGQGTLVTVSSASTKGPSVFPLAPSSKSTSGGTAALGCLVKDYFPEPVTVSWNSGALTSGVHTFPAVLQSSGLYSLSSVVTVPSSSLGTQTYICNVNHKPSNTKVDKKVEPKSCDKTHTCPPCPAPELLGGPSVFLFPPKPKDTLMISRTPEVTCVVVDVSHEDPEVKFNWYVDGVEVHNAKTKPREEQYNSTYRVVSVLTVLHQDWLNGKEYKCKVSNKALPAPIEKTISKAKGQPREPQVCTLPPSRDELTENQVSLTCLVKGFYPSDIAVEWESNGQPENNYKTTPPVLDSDGSFFLYSWLTVDKSRWQQGNVFSCSVMHEALHNHYTQKSLSLSPG light: DIQMTQSPSSVSASVGDRVTITCRASQGISSWLAWYQQKPGKAPKLLIYAASSLQSGVPSRFSGSGSGTDFTLTISSLQPEDFATYYCQQGVSFPRTFGGGTKVEIKRTVAAPSVFIFPPSDEQLKSGTASVVCLLNNFYPREAKVQWKVDNALQSGNSQESVTEQDSKDSTYSLSSTLTLSKADYEKHKVYACEVTHQGLSSPVTKSFNRGEC | 600 pM | 10800 MFI | 700 pM | 551 MFI | 1680 pM | 0.00129 s⁻¹ | 766000 M⁻¹ s⁻¹ |
